From patent publication US20250161440A1 (ABCENTRA, published 2025)

Target: oxidized LDL (oxLDL) (UniProt P04114 28-4563, limits assumed, oxidized); the kind of oxidation used in the in vitro assay is not stated (the filing says in general that oxidized LDL may carry malondialdehyde groups on lysines and histidines, or be oxidized by …)
Test: cell-based or functional assay

oxidized LDL (oxLDL), sequence (P04114 28-4563 limits assumed): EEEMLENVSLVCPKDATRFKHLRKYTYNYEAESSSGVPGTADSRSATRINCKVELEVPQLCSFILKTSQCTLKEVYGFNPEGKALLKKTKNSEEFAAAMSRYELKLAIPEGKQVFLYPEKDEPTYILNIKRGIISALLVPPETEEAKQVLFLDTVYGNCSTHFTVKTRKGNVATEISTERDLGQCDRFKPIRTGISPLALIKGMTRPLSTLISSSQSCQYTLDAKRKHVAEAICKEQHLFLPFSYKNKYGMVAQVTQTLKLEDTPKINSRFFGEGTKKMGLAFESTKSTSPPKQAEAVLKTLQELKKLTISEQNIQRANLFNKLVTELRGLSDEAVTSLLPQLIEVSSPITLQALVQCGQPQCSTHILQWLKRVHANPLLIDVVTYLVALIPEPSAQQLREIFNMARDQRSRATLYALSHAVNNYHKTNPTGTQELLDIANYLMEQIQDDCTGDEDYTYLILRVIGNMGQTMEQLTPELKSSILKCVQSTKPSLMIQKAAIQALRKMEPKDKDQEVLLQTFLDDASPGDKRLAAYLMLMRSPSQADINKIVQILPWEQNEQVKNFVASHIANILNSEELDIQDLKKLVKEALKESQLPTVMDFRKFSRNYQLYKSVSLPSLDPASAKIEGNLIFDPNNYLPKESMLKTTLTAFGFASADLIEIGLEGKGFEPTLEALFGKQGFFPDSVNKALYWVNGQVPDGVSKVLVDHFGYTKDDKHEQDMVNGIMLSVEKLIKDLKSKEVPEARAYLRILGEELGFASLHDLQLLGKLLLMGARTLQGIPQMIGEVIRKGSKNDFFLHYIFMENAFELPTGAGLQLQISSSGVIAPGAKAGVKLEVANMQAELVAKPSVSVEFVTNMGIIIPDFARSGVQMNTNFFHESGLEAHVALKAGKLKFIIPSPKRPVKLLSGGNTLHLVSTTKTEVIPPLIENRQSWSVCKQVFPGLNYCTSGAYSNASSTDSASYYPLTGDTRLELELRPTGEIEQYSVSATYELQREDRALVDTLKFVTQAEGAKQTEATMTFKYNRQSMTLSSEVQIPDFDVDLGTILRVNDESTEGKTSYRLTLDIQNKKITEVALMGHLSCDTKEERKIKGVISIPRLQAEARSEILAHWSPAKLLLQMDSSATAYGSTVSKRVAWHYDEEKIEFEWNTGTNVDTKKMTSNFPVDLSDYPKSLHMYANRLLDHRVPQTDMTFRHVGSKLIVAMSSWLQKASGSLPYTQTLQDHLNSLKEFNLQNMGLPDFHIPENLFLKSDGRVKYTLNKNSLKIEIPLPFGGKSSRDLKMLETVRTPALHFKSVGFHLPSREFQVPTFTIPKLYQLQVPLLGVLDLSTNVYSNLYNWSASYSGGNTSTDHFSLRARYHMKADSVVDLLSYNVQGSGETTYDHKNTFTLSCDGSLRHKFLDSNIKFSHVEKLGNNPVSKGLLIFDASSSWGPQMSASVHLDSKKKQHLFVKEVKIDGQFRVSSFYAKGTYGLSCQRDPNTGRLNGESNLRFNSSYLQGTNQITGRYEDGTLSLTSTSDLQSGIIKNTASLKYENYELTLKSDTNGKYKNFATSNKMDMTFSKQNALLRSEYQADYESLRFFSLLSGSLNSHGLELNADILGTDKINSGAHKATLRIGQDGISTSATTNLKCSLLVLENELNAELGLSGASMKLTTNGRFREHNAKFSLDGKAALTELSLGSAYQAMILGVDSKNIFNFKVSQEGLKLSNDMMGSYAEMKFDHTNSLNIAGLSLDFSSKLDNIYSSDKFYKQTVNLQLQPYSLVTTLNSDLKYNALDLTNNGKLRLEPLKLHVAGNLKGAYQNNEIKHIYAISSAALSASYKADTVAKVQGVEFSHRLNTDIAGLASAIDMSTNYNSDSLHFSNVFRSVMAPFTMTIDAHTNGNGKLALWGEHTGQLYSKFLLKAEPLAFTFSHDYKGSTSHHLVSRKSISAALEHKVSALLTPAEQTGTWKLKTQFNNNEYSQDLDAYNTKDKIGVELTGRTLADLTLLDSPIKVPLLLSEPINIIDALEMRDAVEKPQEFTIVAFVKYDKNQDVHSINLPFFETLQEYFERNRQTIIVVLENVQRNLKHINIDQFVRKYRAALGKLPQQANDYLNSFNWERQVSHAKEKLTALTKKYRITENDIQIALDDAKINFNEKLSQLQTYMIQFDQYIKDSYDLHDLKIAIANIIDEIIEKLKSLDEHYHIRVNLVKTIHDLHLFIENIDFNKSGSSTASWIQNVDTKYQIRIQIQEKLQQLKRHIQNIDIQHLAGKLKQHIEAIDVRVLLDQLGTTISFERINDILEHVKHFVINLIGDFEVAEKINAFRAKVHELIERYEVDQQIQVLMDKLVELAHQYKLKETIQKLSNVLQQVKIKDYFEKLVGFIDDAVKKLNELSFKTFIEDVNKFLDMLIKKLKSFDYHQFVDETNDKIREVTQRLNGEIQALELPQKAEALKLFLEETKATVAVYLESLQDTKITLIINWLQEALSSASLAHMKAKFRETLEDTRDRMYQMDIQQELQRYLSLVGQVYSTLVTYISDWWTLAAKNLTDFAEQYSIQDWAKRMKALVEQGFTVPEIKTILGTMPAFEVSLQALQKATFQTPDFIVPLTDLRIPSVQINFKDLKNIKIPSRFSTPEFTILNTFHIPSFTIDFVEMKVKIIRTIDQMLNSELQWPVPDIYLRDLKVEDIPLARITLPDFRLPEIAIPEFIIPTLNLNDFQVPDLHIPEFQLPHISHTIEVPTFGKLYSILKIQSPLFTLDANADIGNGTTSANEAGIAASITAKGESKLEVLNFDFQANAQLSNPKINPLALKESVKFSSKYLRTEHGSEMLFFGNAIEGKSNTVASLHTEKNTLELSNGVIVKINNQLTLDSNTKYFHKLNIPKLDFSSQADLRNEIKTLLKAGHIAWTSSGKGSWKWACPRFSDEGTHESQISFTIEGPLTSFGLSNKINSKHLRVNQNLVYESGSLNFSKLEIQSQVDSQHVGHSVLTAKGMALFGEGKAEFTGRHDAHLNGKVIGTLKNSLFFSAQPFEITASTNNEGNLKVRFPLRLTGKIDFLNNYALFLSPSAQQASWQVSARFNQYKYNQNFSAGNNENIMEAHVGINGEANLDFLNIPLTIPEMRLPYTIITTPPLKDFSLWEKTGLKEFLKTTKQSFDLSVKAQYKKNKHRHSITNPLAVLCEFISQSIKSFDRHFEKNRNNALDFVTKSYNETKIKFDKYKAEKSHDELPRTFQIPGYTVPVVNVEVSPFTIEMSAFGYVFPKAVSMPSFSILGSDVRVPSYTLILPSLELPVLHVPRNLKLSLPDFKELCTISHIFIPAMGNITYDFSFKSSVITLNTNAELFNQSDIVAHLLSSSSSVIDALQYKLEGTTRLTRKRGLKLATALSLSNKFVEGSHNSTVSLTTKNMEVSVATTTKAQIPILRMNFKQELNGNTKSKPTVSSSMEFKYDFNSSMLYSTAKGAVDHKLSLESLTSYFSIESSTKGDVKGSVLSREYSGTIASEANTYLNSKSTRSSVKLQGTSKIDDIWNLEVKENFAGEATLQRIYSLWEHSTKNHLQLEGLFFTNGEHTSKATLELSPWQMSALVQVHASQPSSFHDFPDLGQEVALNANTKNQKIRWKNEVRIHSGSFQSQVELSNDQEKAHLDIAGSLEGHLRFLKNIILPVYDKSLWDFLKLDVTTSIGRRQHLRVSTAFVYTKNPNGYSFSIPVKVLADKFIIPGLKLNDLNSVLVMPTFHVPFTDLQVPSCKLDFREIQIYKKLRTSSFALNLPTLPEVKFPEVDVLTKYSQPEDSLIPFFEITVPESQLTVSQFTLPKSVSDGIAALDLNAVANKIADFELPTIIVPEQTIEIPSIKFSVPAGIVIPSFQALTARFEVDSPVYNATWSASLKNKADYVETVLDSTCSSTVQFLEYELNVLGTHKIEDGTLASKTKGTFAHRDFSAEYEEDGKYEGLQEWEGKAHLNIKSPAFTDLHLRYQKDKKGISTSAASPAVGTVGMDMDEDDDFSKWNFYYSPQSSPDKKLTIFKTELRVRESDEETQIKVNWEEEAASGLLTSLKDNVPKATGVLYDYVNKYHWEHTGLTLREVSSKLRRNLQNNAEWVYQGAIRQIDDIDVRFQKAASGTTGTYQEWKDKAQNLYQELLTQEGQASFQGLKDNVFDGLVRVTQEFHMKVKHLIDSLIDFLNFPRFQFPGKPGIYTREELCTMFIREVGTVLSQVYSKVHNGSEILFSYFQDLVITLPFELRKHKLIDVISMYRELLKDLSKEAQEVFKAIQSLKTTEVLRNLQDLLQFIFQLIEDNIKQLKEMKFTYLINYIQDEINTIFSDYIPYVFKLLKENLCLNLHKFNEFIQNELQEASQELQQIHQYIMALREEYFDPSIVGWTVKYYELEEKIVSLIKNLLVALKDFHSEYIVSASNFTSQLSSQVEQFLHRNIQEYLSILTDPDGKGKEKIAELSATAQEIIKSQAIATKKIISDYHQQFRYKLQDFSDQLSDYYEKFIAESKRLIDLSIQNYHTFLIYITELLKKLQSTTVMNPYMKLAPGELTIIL

IC50 for MCP-1 inhibition: ~10 nM
B1: orticumab (antibody, human IgG1, lambda, V domains shown)
VH: EVQLLESGGGLVQPGGSLRLSCAASGFTFSNAWMSWVRQAPGKGLEWVSSISVGGHRTYYADSVKGRSTISRDNSKNTLYLQMNSLRAEDTAVYYCARIRVGPSGGAFDYWGQGTLVTVSS
VL: QSVLTQPPSASGTPGQRVTISCSGSNTNIGKNYVSWYQQLPGTAPKLLIYANSNRPSGVPDRFSGSKSGTSASLAISGLRSEDEADYYCASWDASLNGWVFGGGTKLTVLG
